target: HLA-A*02:01; experiment: IEDB peptide-MHC binding, purified MHC/competitive/radioactivity; ≥ and ≤ were set here for values at or beyond the usual limits of such assays; conditions: source organism: Influenza A virus

QLMWALGENMA was tested. Which IC50 did it give?
The IC50 was 848 nM.

With FVEALARSI as the sequence, how does the IC50 read?
The IC50 was 1020 nM.

same assay, conditions: source organism: Mammarenavirus brazilense

GLFQLIFFL was tested. Which IC50 did it give?
The IC50 was 0.44 nM.

LTSLGLLYTV was tested. Which IC50 did it give?
The IC50 was 218 nM.

For QLFSFFEEV, which IC50 is on record?
Its IC50 is 12 nM.

same assay, conditions: source organism: Mammarenavirus choriomeningitidis

NLNQVIQSV was tested. Which IC50 did it give?
Its IC50 is 28 nM.

With SLAADLEKL as the sequence, how does the IC50 read?
The IC50 was 45 nM.

same assay, conditions: source organism: Mammarenavirus juninense

Which IC50 does the source give for FMISFDDIAV here?
Its IC50 is 5.4 nM.

With FQTVSFSMV as the sequence, how does the IC50 read?
Its IC50 is 180 nM.

With GLFQFFVFL as the sequence, how does the IC50 read?
Its IC50 is 495 nM.

GLFQFFVFLA was tested. Which IC50 did it give?
The IC50 was 26 nM.

same assay, conditions: source organism: Mammarenavirus lassaense

With RLLGTFTWTL as the sequence, how does the IC50 read?
The IC50 was 5.1 nM.

same assay, conditions: source organism: Mammarenavirus machupoense

How did the IC50 turn out when NLTEMQEAV was run?
Its IC50 is 547 nM.

How did the IC50 turn out when ALTIACMTV was run?
Its IC50 is 332 nM.

TMNSVVQAL was tested. Which IC50 did it give?
Its IC50 is 1250 nM.

same assay, conditions: source organism: Mammarenavirus whitewaterense

YVSSIFLHL was tested. Which IC50 did it give?
Its IC50 is 157 nM.

With LLQFIVFLL as the sequence, how does the IC50 read?
Its IC50 is 159 nM.

Which IC50 does the source give for ALNIALIAV here?
Its IC50 is 19 nM.

Which IC50 does the source give for FTPQIICGNV here?
The IC50 was 972 nM.

For QLDMIITAV, which IC50 is on record?
The IC50 was 57 nM.

same assay, conditions: source organism: Vaccinia virus WR

VLGKVTINNL was tested. Which IC50 did it give?
Its IC50 is 1770 nM.

For YMFFVIKNL, which IC50 is on record?
The IC50 was 21 nM.

Which IC50 does the source give for LVASLNPNM here?
The IC50 was 387 nM.

GIAHLLEHL was tested. Which IC50 did it give?
Its IC50 is 3560 nM.

Which IC50 does the source give for PMLYQLLEA here?
The IC50 was 1070 nM.

Which IC50 does the source give for CVLPAVVYST here?
The IC50 was 303 nM.

For GMLFVNDLMT, which IC50 is on record?
Its IC50 is 838 nM.

How did the IC50 turn out when IVLSNTSTAV was run?
The IC50 was 725 nM.

With EATYHIIIVA as the sequence, how does the IC50 read?
The IC50 was 2120 nM.

With KILSASNRL as the sequence, how does the IC50 read?
The IC50 was 766 nM.

ILMDNKGLGV was tested. Which IC50 did it give?
The IC50 was 1.3 nM.

FLCLLMKLSI was tested. Which IC50 did it give?
Its IC50 is 2.1 nM.

For LMMTLPSIFL, which IC50 is on record?
The IC50 was 0.2 nM.

Which IC50 does the source give for VLLDYGLHGL here?
The IC50 was 1.3 nM.

With GLFIYIPGT as the sequence, how does the IC50 read?
The IC50 was 19 nM.

Which IC50 does the source give for KLSSYHVVSV here?
The IC50 was 16 nM.

With LITMLSIIL as the sequence, how does the IC50 read?
Its IC50 is 115 nM.

How did the IC50 turn out when CLVVSTKGDV was run?
The IC50 was 674 nM.

With VVVPIKFIA as the sequence, how does the IC50 read?
The IC50 was 2840 nM.

Which IC50 does the source give for KQDRSDGYFL here?
The IC50 was 3910 nM.

Which IC50 does the source give for YILRGLLEA here?
Its IC50 is 2.5 nM.

Which IC50 does the source give for TVMVKINPTL here?
Its IC50 is 114 nM.

TIATYIDALA was tested. Which IC50 did it give?
The IC50 was 125 nM.

How did the IC50 turn out when IIDFLEGAL was run?
Its IC50 is 919 nM.

For TLSRHIFMA, which IC50 is on record?
Its IC50 is 6.2 nM.

With TLFLILCYFI as the sequence, how does the IC50 read?
The IC50 was 21 nM.

Which IC50 does the source give for TIIFVLISI here?
Its IC50 is 1180 nM.

For SIINRDIIVI, which IC50 is on record?
Its IC50 is 826 nM.

For GVLTIKAPNV, which IC50 is on record?
The IC50 was 3880 nM.

How did the IC50 turn out when TLTNVVNIST was run?
Its IC50 is 1240 nM.

IILAISALL was tested. Which IC50 did it give?
The IC50 was 12 nM.

With ILYDNVVTL as the sequence, how does the IC50 read?
Its IC50 is 0.51 nM.

How did the IC50 turn out when FIVVATAAV was run?
Its IC50 is 7 nM.

For NTIDQTANV, which IC50 is on record?
The IC50 was 162 nM.

LLLDYMTST was tested. Which IC50 did it give?
The IC50 was 7 nM.

With TLRHIIGLLM as the sequence, how does the IC50 read?
The IC50 was 748 nM.

Which IC50 does the source give for NMISDTIFV here?
The IC50 was 2.2 nM.

With SVVVPIKFI as the sequence, how does the IC50 read?
Its IC50 is 2960 nM.

With YTIERIFNA as the sequence, how does the IC50 read?
Its IC50 is 0.56 nM.

For FLTAALPVKL, which IC50 is on record?
Its IC50 is 384 nM.

SLMDMITLSL was tested. Which IC50 did it give?
The IC50 was 0.59 nM.

With KQDISLKRNA as the sequence, how does the IC50 read?
Its IC50 is 778 nM.

With FLLFLEITYT as the sequence, how does the IC50 read?
Its IC50 is 6.9 nM.

With ILTREMGFL as the sequence, how does the IC50 read?
The IC50 was 2280 nM.

Which IC50 does the source give for SLSSQMTST here?
The IC50 was 2000 nM.

With NLYDDNDIRT as the sequence, how does the IC50 read?
The IC50 was 40 nM.

Which IC50 does the source give for YTQDELINV here?
The IC50 was 7.3 nM.

YLFTFTIYT was tested. Which IC50 did it give?
Its IC50 is 3.3 nM.

For FLLLTSIPI, which IC50 is on record?
Its IC50 is 0.11 nM.

Which IC50 does the source give for KLNKMTVEL here?
Its IC50 is 6.5 nM.

For KLLKMVTSV, which IC50 is on record?
The IC50 was 1.2 nM.

LMSTLLIYL was tested. Which IC50 did it give?
Its IC50 is 0.13 nM.

Which IC50 does the source give for VIGLCIRISM here?
Its IC50 is 735 nM.

How did the IC50 turn out when KTDGIPITI was run?
Its IC50 is 48 nM.

For TVSDYISEL, which IC50 is on record?
Its IC50 is 128 nM.

For NLFTFLHEI, which IC50 is on record?
The IC50 was 1.1 nM.

How did the IC50 turn out when HMNEIRINI was run?
Its IC50 is 670 nM.

For FAVQTIVFI, which IC50 is on record?
The IC50 was 96 nM.

With FLTSVINRV as the sequence, how does the IC50 read?
Its IC50 is 2.5 nM.

For MMIDDFGTA, which IC50 is on record?
Its IC50 is 3.2 nM.

For FLRYLLFGI, which IC50 is on record?
Its IC50 is 2.5 nM.

How did the IC50 turn out when YLDGQLARL was run?
The IC50 was 1.3 nM.

For IIDREVVANV, which IC50 is on record?
Its IC50 is 63 nM.

How did the IC50 turn out when SVNIWAIIPL was run?
The IC50 was 1120 nM.

With GLIIISIFL as the sequence, how does the IC50 read?
The IC50 was 72 nM.

Which IC50 does the source give for FIGYMVKNV here?
Its IC50 is 443 nM.

Which IC50 does the source give for TLWAIINTI here?
Its IC50 is 9.4 nM.

Which IC50 does the source give for IVWEKKSLV here?
Its IC50 is 2.1 nM.

With TLFDDELYSI as the sequence, how does the IC50 read?
The IC50 was 1.1 nM.

With TLDNILGIL as the sequence, how does the IC50 read?
Its IC50 is 67 nM.

For GLHCDFACLM, which IC50 is on record?
The IC50 was 2800 nM.

Which IC50 does the source give for YANCSSISI here?
Its IC50 is 901 nM.

For CISQHQHLA, which IC50 is on record?
The IC50 was 449 nM.

With KVHGLDVKNV as the sequence, how does the IC50 read?
Its IC50 is 1900 nM.

Which IC50 does the source give for CIDGKWNPV here?
Its IC50 is 8.3 nM.

KIIETYLGRV was tested. Which IC50 did it give?
Its IC50 is 30 nM.

For ALGGSVNIWA, which IC50 is on record?
The IC50 was 1160 nM.

Which IC50 does the source give for KLSDVGHQYA here?
The IC50 was 21 nM.

Which IC50 does the source give for STAVNEEWL here?
The IC50 was 4690 nM.

GLISGSTFSI was tested. Which IC50 did it give?
Its IC50 is 22 nM.

STLIVTIYV was tested. Which IC50 did it give?
The IC50 was 677 nM.

Which IC50 does the source give for KIFETIYYGA here?
Its IC50 is 604 nM.

How did the IC50 turn out when ATYHIIIVAL was run?
The IC50 was 1150 nM.

For NIEKYFTFLV, which IC50 is on record?
Its IC50 is 1450 nM.

Which IC50 does the source give for VLDATNDGLI here?
The IC50 was 369 nM.

Which IC50 does the source give for VLYNGVNYL here?
The IC50 was 0.25 nM.

How did the IC50 turn out when WLYGYNFII was run?
Its IC50 is 0.19 nM.

LIVLFEVFVV was tested. Which IC50 did it give?
The IC50 was 2070 nM.

ITLYDFDYYI was tested. Which IC50 did it give?
Its IC50 is 29 nM.

For ELIAFSSGTV, which IC50 is on record?
Its IC50 is 997 nM.

Which IC50 does the source give for IQAKTKNFTI here?
The IC50 was 4230 nM.

How did the IC50 turn out when ATNIFPFFV was run?
The IC50 was 17 nM.

How did the IC50 turn out when QIFEVYWYL was run?
Its IC50 is 11 nM.

For VVSVDCNKEL, which IC50 is on record?
The IC50 was 2430 nM.

For AVISKVTYSL, which IC50 is on record?
The IC50 was 4770 nM.

Which IC50 does the source give for MTPSPFYTV here?
Its IC50 is 6.4 nM.

Which IC50 does the source give for YVLFTVMTYV here?
Its IC50 is 1 nM.

How did the IC50 turn out when DIIDFLEGA was run?
Its IC50 is 445 nM.

With HLMFYTLPI as the sequence, how does the IC50 read?
Its IC50 is 0.67 nM.

LLSQYLSRV was tested. Which IC50 did it give?
The IC50 was 1 nM.

For FVFRSPFIVI, which IC50 is on record?
Its IC50 is 170 nM.

FMFIGSPMYL was tested. Which IC50 did it give?
The IC50 was 0.093 nM.

How did the IC50 turn out when FLDNECHTI was run?
The IC50 was 0.78 nM.

For NIWAIIPLSA, which IC50 is on record?
The IC50 was 87 nM.

Which IC50 does the source give for SMPASHNNLA here?
Its IC50 is 1910 nM.

FLIVRLNQCM was tested. Which IC50 did it give?
Its IC50 is 34 nM.

How did the IC50 turn out when FVCISYYFT was run?
The IC50 was 994 nM.

How did the IC50 turn out when QLEHGSCQPV was run?
The IC50 was 16 nM.

Which IC50 does the source give for RMQRISGSNI here?
The IC50 was 4330 nM.

ELVRYIELV was tested. Which IC50 did it give?
The IC50 was 291 nM.
